According to PMC8294587, “Intrinsic differences in the mechanisms of Tie2 binding to angiopoietins exploited by directed evolution to create an Ang2-selective ligand trap” (The Journal of Biological Chemistry, 2021):

Assays:
Assay in all cases: ELISA; recombinant Ang1 or Ang2 immobilised on Maxisorp plates, blocked with TBS, 0.1% Triton-X100, 5% milk powder; Tie2 ectodomain proteins bound for 1 h; detected with anti-Tie2 ectodomain antibodies; EC50 = concentration of ectodomain for 50% of maximal binding
Settings in all cases: both partners purified
[1] = target: T1, Angiopoietin-2 (UniProt O15123 19-496)
T1 construct: recombinant Ang2; the residue numbers printed for Ang2 (Asp448, Phe469, Ser480) come from the cited structure 2GY7; also called Ang2; source: recombinant
T1 sequence (looked up): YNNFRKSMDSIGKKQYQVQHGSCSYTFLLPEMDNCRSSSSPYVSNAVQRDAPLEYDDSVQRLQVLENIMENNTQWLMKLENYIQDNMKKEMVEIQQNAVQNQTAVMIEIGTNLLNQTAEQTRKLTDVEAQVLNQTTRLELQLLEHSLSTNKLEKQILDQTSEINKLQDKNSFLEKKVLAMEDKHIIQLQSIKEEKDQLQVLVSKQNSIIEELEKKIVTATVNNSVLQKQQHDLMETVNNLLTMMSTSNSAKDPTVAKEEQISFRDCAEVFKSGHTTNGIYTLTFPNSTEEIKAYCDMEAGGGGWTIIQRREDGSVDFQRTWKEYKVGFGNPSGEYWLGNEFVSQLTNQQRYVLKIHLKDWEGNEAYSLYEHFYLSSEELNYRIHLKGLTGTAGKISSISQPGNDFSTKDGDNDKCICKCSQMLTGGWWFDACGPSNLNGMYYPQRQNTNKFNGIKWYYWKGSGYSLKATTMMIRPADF

[2] = target: T2, Angiopoietin-1 (UniProt Q15389 16-498)
T2 construct: recombinant Ang1; the residue numbers printed for Ang1 (Gln415, Asp450, Leu471, Tyr478) come from the cited structure 4K0V; also called Ang1; source: recombinant
T2 sequence (looked up): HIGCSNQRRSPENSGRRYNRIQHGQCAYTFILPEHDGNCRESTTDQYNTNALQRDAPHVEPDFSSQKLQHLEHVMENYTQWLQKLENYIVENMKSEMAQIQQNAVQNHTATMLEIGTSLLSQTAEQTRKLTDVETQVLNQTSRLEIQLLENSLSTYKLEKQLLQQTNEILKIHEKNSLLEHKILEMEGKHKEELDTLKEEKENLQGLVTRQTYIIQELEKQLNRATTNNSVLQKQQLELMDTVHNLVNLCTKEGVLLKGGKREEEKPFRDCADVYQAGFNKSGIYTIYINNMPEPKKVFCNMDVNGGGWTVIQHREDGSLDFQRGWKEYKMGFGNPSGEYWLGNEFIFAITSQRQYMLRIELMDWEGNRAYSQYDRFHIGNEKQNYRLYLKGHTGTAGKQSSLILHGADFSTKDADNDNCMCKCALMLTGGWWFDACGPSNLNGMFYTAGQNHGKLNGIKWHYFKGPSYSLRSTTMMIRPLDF

[3] = target: T1, Angiopoietin-2; remark: listed apart in the source

B1: R5 Tie2 ectodomain-Fc (Phe161Ile, deletion of Arg167 and His168, Ser164Leu, Pro171Ser) (Fc fusion, human, UniProt Q02763 23-442, looked up)
chain: AMDLILINSLPLVSDAETSLTCIASGWRPHEPITIGRDFEALMNQHQDPLEVTQDVTREWAKKVVWKREKASKINGAYFCEGRVRGEAIRIRTMKMRQQASFLPATLTMTVDKGDNVNISFKKVLIKEEDAVIYKNGSIIHLVPEVSDILEVHLPHAQPQDAGVYSARYIGGNLFTSAFTRLIVRRCEAQKWGPECNHLCTACMNNGVCHEDTGECICPPGFMGRTCEKACELHTFGRTCKERCSGQEGCKSYVFCLPDPYGCSCATGWKGLQCNEACHPGFYGPDCKLRCSCNNGEMCDRFQGCLCSPGWQGLQCEREGIQRMTPKIVDLPDHIEVNSGKFNPICKASGWPLPTNEEMTLVKPDGTVLHPKDFNHTDHFSVAIFTIHRILPPDSGVWVCSVNTVAGMVEKPFNISVK
notes: signal peptide in the construct; Tie2 ectodomain, human, residues 1-442, variant from directed evolution; also called R5-Fc; evolved ectodomain; source: Hek293, transfected, purified from culture medium (nickel chromatography); not shown: Fc (fragment of human Fc immunoglobulin domain, after a GS4 linker), C-terminal, kept
With B1 the EC50 [1] was 3.4 nM.

B2: wild-type Tie2 ectodomain-Fc (Fc fusion, human, UniProt Q02763 23-442, looked up)
chain: AMDLILINSLPLVSDAETSLTCIASGWRPHEPITIGRDFEALMNQHQDPLEVTQDVTREWAKKVVWKREKASKINGAYFCEGRVRGEAIRIRTMKMRQQASFLPATLTMTVDKGDNVNISFKKVLIKEEDAVIYKNGSFIHSVPRHEVPDILEVHLPHAQPQDAGVYSARYIGGNLFTSAFTRLIVRRCEAQKWGPECNHLCTACMNNGVCHEDTGECICPPGFMGRTCEKACELHTFGRTCKERCSGQEGCKSYVFCLPDPYGCSCATGWKGLQCNEACHPGFYGPDCKLRCSCNNGEMCDRFQGCLCSPGWQGLQCEREGIQRMTPKIVDLPDHIEVNSGKFNPICKASGWPLPTNEEMTLVKPDGTVLHPKDFNHTDHFSVAIFTIHRILPPDSGVWVCSVNTVAGMVEKPFNISVK
notes: signal peptide in the construct; Tie2 ectodomain, human, residues 1-442; Order on the chain: Tie2 1-442, GS4 linker, human Fc fragment, His6; also called Wt; Wt-Tie2; source: Hek293, transfected, purified from culture medium (nickel chromatography); not shown: Fc (fragment of human Fc immunoglobulin domain, after a GS4 linker), C-terminal, kept
Work on B2 yielded an EC50 [2] of 0.66 nM and an EC50 [3] of 1.37 nM.

B3: Tie2 ectodomain-Fc H168A (Fc fusion, human, UniProt Q02763 23-442, looked up)
chain: AMDLILINSLPLVSDAETSLTCIASGWRPHEPITIGRDFEALMNQHQDPLEVTQDVTREWAKKVVWKREKASKINGAYFCEGRVRGEAIRIRTMKMRQQASFLPATLTMTVDKGDNVNISFKKVLIKEEDAVIYKNGSFIHSVPRAEVPDILEVHLPHAQPQDAGVYSARYIGGNLFTSAFTRLIVRRCEAQKWGPECNHLCTACMNNGVCHEDTGECICPPGFMGRTCEKACELHTFGRTCKERCSGQEGCKSYVFCLPDPYGCSCATGWKGLQCNEACHPGFYGPDCKLRCSCNNGEMCDRFQGCLCSPGWQGLQCEREGIQRMTPKIVDLPDHIEVNSGKFNPICKASGWPLPTNEEMTLVKPDGTVLHPKDFNHTDHFSVAIFTIHRILPPDSGVWVCSVNTVAGMVEKPFNISVK
notes: signal peptide in the construct; Tie2 ectodomain, human, residues 1-442; also called Tie2(H168A); His168Ala; source: Hek293, transfected, purified from culture medium (nickel chromatography); not shown: Fc (fragment of human Fc immunoglobulin domain, after a GS4 linker), C-terminal, kept
With B3 the EC50 [2] was 26.4 nM and the EC50 [3] was 0.5 nM.

B4: Tie2 ectodomain-Fc S164A (Fc fusion, human, UniProt Q02763 23-442, looked up)
chain: AMDLILINSLPLVSDAETSLTCIASGWRPHEPITIGRDFEALMNQHQDPLEVTQDVTREWAKKVVWKREKASKINGAYFCEGRVRGEAIRIRTMKMRQQASFLPATLTMTVDKGDNVNISFKKVLIKEEDAVIYKNGSFIHAVPRHEVPDILEVHLPHAQPQDAGVYSARYIGGNLFTSAFTRLIVRRCEAQKWGPECNHLCTACMNNGVCHEDTGECICPPGFMGRTCEKACELHTFGRTCKERCSGQEGCKSYVFCLPDPYGCSCATGWKGLQCNEACHPGFYGPDCKLRCSCNNGEMCDRFQGCLCSPGWQGLQCEREGIQRMTPKIVDLPDHIEVNSGKFNPICKASGWPLPTNEEMTLVKPDGTVLHPKDFNHTDHFSVAIFTIHRILPPDSGVWVCSVNTVAGMVEKPFNISVK
notes: signal peptide in the construct; Tie2 ectodomain, human, residues 1-442; source: Hek293, transfected, purified from culture medium (nickel chromatography); not shown: Fc (fragment of human Fc immunoglobulin domain, after a GS4 linker), C-terminal, kept
For B4, the EC50 [2] was 0.44 nM and the EC50 [3] was 14.4 nM.

B5: Tie2 ectodomain-Fc V165A (Fc fusion, human, UniProt Q02763 23-442, looked up)
chain: AMDLILINSLPLVSDAETSLTCIASGWRPHEPITIGRDFEALMNQHQDPLEVTQDVTREWAKKVVWKREKASKINGAYFCEGRVRGEAIRIRTMKMRQQASFLPATLTMTVDKGDNVNISFKKVLIKEEDAVIYKNGSFIHSAPRHEVPDILEVHLPHAQPQDAGVYSARYIGGNLFTSAFTRLIVRRCEAQKWGPECNHLCTACMNNGVCHEDTGECICPPGFMGRTCEKACELHTFGRTCKERCSGQEGCKSYVFCLPDPYGCSCATGWKGLQCNEACHPGFYGPDCKLRCSCNNGEMCDRFQGCLCSPGWQGLQCEREGIQRMTPKIVDLPDHIEVNSGKFNPICKASGWPLPTNEEMTLVKPDGTVLHPKDFNHTDHFSVAIFTIHRILPPDSGVWVCSVNTVAGMVEKPFNISVK
notes: as for B4
B5 was tested, and the EC50 [2] was 14.3 nM and the EC50 [3] was 77.7 nM.
